According to ChEMBL document CHEMBL1152109, “Synthesis and biological evaluation of a new series of dihydrofolate reductase inhibitors based on the 4-(2,6-diamino-5-pyrimidinyl)alkyl-L-glutamic acid structure” (Bioorg Med Chem Lett, 1996):
Values belong to the molecule of their own block, whether it stands above or below them.

Legend:
Dihydrofolate reductase = target: T1, Dihydrofolate reductase (Homo sapiens, UniProt P00374); experiment: Binding affinity against Recombinant human dihydrofolate reductase (DHFR)
T1 sequence (P00374 whole entry): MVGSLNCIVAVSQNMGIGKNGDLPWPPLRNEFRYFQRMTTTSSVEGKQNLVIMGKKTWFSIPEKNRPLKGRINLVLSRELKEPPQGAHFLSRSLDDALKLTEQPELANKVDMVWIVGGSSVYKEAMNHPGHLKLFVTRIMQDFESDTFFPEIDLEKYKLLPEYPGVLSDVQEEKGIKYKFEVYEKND

[1] = Binding affinity against human monofunctional glycinamide ribonucleotide formyl transferase (GARFT)
Thymidylate synthase [2] = target: T2, Thymidylate synthase (Homo sapiens, UniProt P04818); experiment: Binding affinity against Recombinant human thymidylate synthase (TS)
[3] = Ratio of Vmax/Km was evaluated.
[4] = Binding affinity against human monofunctional glycinamide ribonucleotide formyl transferase (GARFT).
Thymidylate synthase [5] = target: T2, Thymidylate synthase; experiment: Binding affinity against Recombinant human thymidylate synthase (TS).
[6] = substrate: CN(Cc1cnc2nc(N)nc(N)c2n1)c1ccc(C(=O)N[C@@H](CCC(=O)O)C(=O)O)cc1; experiment: (§1) Substrate activity against folyl-poly-glutamate synthetase isolated from hog liver; settings: Sus scrofa
[7] = substrate: Nc1nc2[nH]cc(CCc3ccc(C(=O)N[C@@H](CCC(=O)O)C(=O)O)cc3)c2c(=O)[nH]1; experiment: as §1; settings: Sus scrofa
[8] = substrate: Nc1nc2c(c(=O)[nH]1)C[C@@H](CCc1ccc(C(=O)N[C@@H](CCC(=O)O)C(=O)O)cc1)CN2; experiment: as §1; settings: Sus scrofa
[9] = substrate: Nc1ncc(CCCCc2ccc(C(=O)N[C@@H](CCC(=O)O)C(=O)O)cc2)c(N)n1; experiment: as §1; settings: Sus scrofa
[10] = substrate: Nc1ncc(CCCc2ccc(C(=O)N[C@@H](CCC(=O)O)C(=O)O)cc2)c(N)n1; experiment: as §1; settings: Sus scrofa
[11] = substrate: CCC(Cc1cnc2nc(N)nc(N)c2n1)c1ccc(C(=O)N[C@@H](CCC(=O)O)C(=O)O)cc1; experiment: Substrate activity against folyl-poly-glutamate synthetase (FPGS) (isolated from hog liver).; settings: Sus scrofa

T2 sequence (P04818 whole entry): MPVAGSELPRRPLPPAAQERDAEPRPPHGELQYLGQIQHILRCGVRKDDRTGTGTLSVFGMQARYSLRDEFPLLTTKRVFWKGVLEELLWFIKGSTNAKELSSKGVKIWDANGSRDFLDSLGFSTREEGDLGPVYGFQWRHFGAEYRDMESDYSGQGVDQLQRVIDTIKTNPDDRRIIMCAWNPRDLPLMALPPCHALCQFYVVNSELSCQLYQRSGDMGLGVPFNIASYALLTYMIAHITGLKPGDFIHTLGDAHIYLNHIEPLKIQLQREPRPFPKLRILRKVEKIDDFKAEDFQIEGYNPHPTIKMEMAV

Molecule: Nc1ncc(CCCc2ccc(C(=O)N[C@@H](CCC(=O)O)C(=O)O)cc2)c(N)n1
Ki (Dihydrofolate reductase): 0.12 nM
Ki [1]: 54.3 µM
Ki (Thymidylate synthase [2]): > 5 µM

Ratio [3]: 19
Molecule: CCC(Cc1cnc2nc(N)nc(N)c2n1)c1ccc(C(=O)N[C@@H](CCC(=O)O)C(=O)O)cc1 (stereo partly drawn)

Ratio [3]: 4.3
Molecule: CN(Cc1cnc2nc(N)nc(N)c2n1)c1ccc(C(=O)N[C@@H](CCC(=O)O)C(=O)O)cc1

Ratio [3]: 60
Molecule: Nc1nc2c(c(=O)[nH]1)CC(CCc1ccc(C(=O)N[C@@H](CCC(=O)O)C(=O)O)cc1)CN2 (single isomer, unassigned)

Molecule: Nc1ncc(CCCCc2ccc(C(=O)N[C@@H](CCC(=O)O)C(=O)O)cc2)c(N)n1
Ki (Dihydrofolate reductase): 0.005 nM
Ki [4]: 62 µM
Ki (Thymidylate synthase [5]): > 5 µM
Ratio [3]: 34

Ratio [3]: 381
Molecule: Nc1nc2[nH]cc(CCc3ccc(C(=O)N[C@@H](CCC(=O)O)C(=O)O)cc3)c2c(=O)[nH]1

B1: Folylpolyglutamate synthase, mitochondrial (Homo sapiens), Q05932 (protein)
chain: MSRARSHLRAALFLAAASARGITTQVAARRGLSAWPVPQEPSMEYQDAVRMLNTLQTNAGYLEQVKRQRGDPQTQLEAMELYLARSGLQVEDLDRLNIIHVTGTKGKGSTCAFTECILRSYGLKTGFFSSPHLVQVRERIRINGQPISPELFTKYFWRLYHRLEETKDGSCVSMPPYFRFLTLMAFHVFLQEKVDLAVVEVGIGGAYDCTNIIRKPVVCGVSSLGIDHTSLLGDTVEKIAWQKGGIFKQGVPAFTVLQPEGPLAVLRDRAQQISCPLYLCPMLEALEEGGPPLTLGLEGEHQRSNAALALQLAHCWLQRQDRHGAGEPKASRPGLLWQLPLAPVFQPTSHMRLGLRNTEWPGRTQVLRRGPLTWYLDGAHTASSAQACVRWFRQALQGRERPSGGPEVRVLLFNATGDRDPAALLKLLQPCQFDYAVFCPNLTEVSSTGNADQQNFTVTLDQVLLRCLEHQQHWNHLDEEQASPDLWSAPSPEPGGSASLLLAPHPPHTCSASSLVFSCISHALQWISQGRDPIFQPPSPPKGLLTHPVAHSGASILREAAAIHVLVTGSLHLVGGVLKLLEPALSQ
Km [6]: 116 µM
Vmax [6]: 498 nM/h/mg
Km [7]: 1.9 µM
Vmax [7]: 725 nM/h/mg
Km [8]: 16.4 µM
Vmax [8]: 977 nM/h/mg
Km [9]: 20 µM
Vmax [9]: 685 nM/h/mg
Km [10]: 5.1 µM
Vmax [10]: 758 nM/h/mg
Km [11]: 13.3 µM
Vmax [11]: 258 nM/h/mg
